Molecular target: ASC^(H118A,F136A,W169A,K174A, L177A-L178A,L192A) (ASC-YFP binding site mutant) (UniProt Q9ULZ3)
Assay: flow cytometry of ASC-YFP speck formation in transfected HEK293 cells
Details: parent: est. 37, read off a plot

Sequence of ASC-YFP (Q9ULZ3 whole entry H118A/F163A/W169A/K174A/L177A/L178A/L192A, change not shown): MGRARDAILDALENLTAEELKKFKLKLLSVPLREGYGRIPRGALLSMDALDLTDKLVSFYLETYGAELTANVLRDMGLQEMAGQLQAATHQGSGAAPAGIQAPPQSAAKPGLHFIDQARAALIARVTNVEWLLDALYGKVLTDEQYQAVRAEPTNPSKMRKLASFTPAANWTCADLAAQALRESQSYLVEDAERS

With “ASC-YFP (from UniProt Q9ULZ3) H118A; F136A; W169A; K174A; L177A; L178A; L192A” the other: ASC specks (%) was 13%.

From article PMC8667020
